From the supplement of paper PMC10724198
± gives the standard deviation of the averaged measurements.

System: Saccharomyces cerevisiae
Assay: protein stability index of tFT-peptide fusion (C-terminal peptide) (PSI (0-1 scale)); higher = more stable (slower turnover)
Details: genetic background: wild type; temperature: 30 C
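Further: PSI is a weighted mean of sequencing reads over stability bins, variants kept only with over 10 reads, mCherry proximal and sfGFP distal, peptide attached via GGGS linker.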

Row | Sequence | protein stability index
1 | PFPAPPPPPPPP | 0.678 ± 0.064
2 | PFPLSPPPPPLD | 0.761 ± 0.045
3 | PFPPPPVPHARR | 0.775 ± 0.22
4 | PFPPPTPPPPLP | 0.751 ± 0.077
5 | PFPPRRPSATTL | 0.727 ± 0.045
6 | PFPSFFFCCISL | 0.507 ± 0.0075
7 | PFRPPPLLPFSP | 0.799 ± 0.13
8 | PFSGPVYSHNDV | 0.738 ± 0.08
9 | PFSLIFSFFSEV | 0.7487 ± 0.0047
10 | PFSSPPPLSLPP | 0.7308 ± 0.0011
11 | PGALILSNRFFS | 0.685 ± 0.041
12 | PGAPPPASPPST | 0.714 ± 0.047
13 | PGCNLPLVPPRL | 0.701 ± 0.018
14 | PGFFRLSLFPFA | 0.713 ± 0.0083
15 | PGGLHHGCSTPA | 0.724 ± 0.0087
16 | PGGQGVRTDRPQ | 0.678 ± 0.025
17 | PGGTDGYSGLEK | 0.689 ± 0.011
18 | PGIGMVCAVAEG | 0.687 ± 0.0082
19 | PGLSLPLPPPRP | 0.703 ± 0.035
20 | PGLTAVVYRPAD | 0.724 ± 0.04
21 | PGPHGVVPTGNE | 0.6666 ± 0.0056
22 | PGPPPPPPALLP | 0.658 ± 0.056
23 | PGPPSTAPHLPE | 0.659 ± 0.018

Row | Sequence | protein stability index
24 | PGPPTPPPPLYP | 0.706 ± 0.012
25 | PGPTNSSLTASD | 0.7667 ± 0.0037
26 | PGSCAYHIFRFR | 0.583 ± 0.0062
27 | PGSLPPPPPPPP | 0.716 ± 0.016
28 | PGSLSLSPLLPS | 0.758 ± 0.037
29 | PGTGAASGTGGA | 0.689 ± 0.012
30 | PGTLLHPLSVGR | 0.668 ± 0.019
31 | PGWDSHRKILSQ | 0.68 ± 0.0083
32 | PHADFALFPFSP | 0.785 ± 0.036
33 | PHAERASPDGLS | 0.664 ± 0.063
34 | PHASLAPPLPPP | 0.5801 ± 0.0042
35 | PHCPPPPSLSPP | 0.791 ± 0.094
36 | PHFLNNRNTIRR | 0.714 ± 0.04
37 | PHHAPRPPPFAG | 0.646 ± 0.05
38 | PHLPSSPSPYSP | 0.689 ± 0.0043
39 | PHPAPPPSPSPS | 0.715 ± 0.033
40 | PHPATLPPPAPT | 0.699 ± 0.032
41 | PHPGVPPTFLSL | 0.657 ± 0.11
42 | PHPLPSPSPPPH | 0.69228 ± 0.00045
43 | PHPPPVPAPPPP | 0.663 ± 0.008
44 | PHPPSCPLTPPP | 0.666 ± 0.015
45 | PHPRPPLAPPLT | 0.688 ± 0.038
46 | PHRPPPCLPFGS | 0.728 ± 0.039

Row | Sequence | protein stability index
47 | PHSGVVVRCPSG | 0.704 ± 0.022
48 | PHSPLPAHPPCR | 0.745 ± 0.14
49 | PHSPPSLSPTPP | 0.685 ± 0.06
50 | PHSPSSPTIPSS | 0.7363 ± 0.0069
51 | PHSSPSHRLSLP | 0.722 ± 0.035
52 | PHTGVKRDIENE | 0.693 ± 0.092
53 | PIDYRPEPYALP | 0.775 ± 0.034
54 | PIGFSHISFSPS | 0.645 ± 0.1
55 | PINALLHNKRES | 0.721 ± 0.082
56 | PIPPHGTPPAAY | 0.694 ± 0.036
57 | PIPPPAPPPAPP | 0.6778 ± 0.0036
58 | PIPPPPRACGPS | 0.7 ± 0.02
59 | PIPSPAPLPPRP | 0.675 ± 0.0073
60 | PIRPQSSVSLKQ | 0.64958 ± 0.00064
61 | PIRPSPPVLPPL | 0.647 ± 0.11
62 | PISLFLSSSAPL | 0.729 ± 0.053
63 | PISTHYGSAVFM | 0.692 ± 0.029
64 | PITFPPSLPPPP | 0.666 ± 0.045
65 | PIVLALPTFPPL | 0.716 ± 0.048
66 | PIWRLVMRCCRS | 0.575 ± 0.022
67 | PKKGKKKLREKS | 0.728 ± 0.051
68 | PKKTTIQRDKTN | 0.607 ± 0.027
69 | PKNNHTKKKTGQ | 0.677 ± 0.0093

Row | Sequence | protein stability index
70 | PKPNRAHSTTHR | 0.691 ± 0.008
71 | PKRTHDPAPKTT | 0.70897 ± 0.00058
72 | PKRTTHIGRIHE | 0.6875 ± 0.006
73 | PKSGRAVMQGEG | 0.631 ± 0.071
74 | PKSRTLKDITIF | 0.684 ± 0.024
75 | PLAPPRSPHLPP | 0.673 ± 0.041
76 | PLAPSSHLHPSP | 0.75 ± 0.0015
77 | PLATLIPPLIPS | 0.554 ± 0.084
78 | PLCLPALPPPLP | 0.676 ± 0.097
79 | PLFLLPSSPPAS | 0.757 ± 0.06
80 | PLFLPALPPPLP | 0.687 ± 0.11
81 | PLFPACYFHPFD | 0.746 ± 0.032
82 | PLFYSLCFFCGL | 0.667 ± 0.044
83 | PLGGLTLNIIEC | 0.701 ± 0.0089
84 | PLGPPPPPPLPS | 0.7222 ± 0.0058
85 | PLHHPPSPRLPP | 0.617 ± 0.018
86 | PLHLYPHPPTHS | 0.698 ± 0.078
87 | PLHSPPSRPCQL | 0.691 ± 0.065
88 | PLHVSLVRFGCP | 0.633 ± 0.032
89 | PLHYPTPCHPLP | 0.726 ± 0.052
90 | PLKTDSVPEFTA | 0.5811 ± 0.0033
91 | PLLASRFLQVGF | 0.678 ± 0.0074
92 | PLLLHHPPPRVP | 0.666 ± 0.029

Row | Sequence | protein stability index
93 | PLLPLPPNPSPP | 0.681 ± 0.022
94 | PLLPSPPLLLPS | 0.819 ± 0.12
95 | PLLSYSPPAPPP | 0.664 ± 0.024
96 | PLLTPPFFPPPP | 0.7588 ± 0.0053
97 | PLNQKPPDWPTQ | 0.734 ± 0.015
98 | PLNSNSYDASPL | 0.658 ± 0.052
99 | PLPALPPPPRGP | 0.636 ± 0.026
100 | PLPAPPLPPRSP | 0.703 ± 0.012
101 | PLPDPPPTPSGT | 0.682 ± 0.058
102 | PLPGPSPPPAPP | 0.648 ± 0.044
103 | PLPHPPPPPPLP | 0.768 ± 0.026
104 | PLPINAGVRITP | 0.671 ± 0.1
105 | PLPLHLATPHLF | 0.694 ± 0.05
106 | PLPLPLPSRPRP | 0.653 ± 0.044
107 | PLPMPHPRSRST | 0.673 ± 0.014
108 | PLPPCSARPPPR | 0.7657 ± 0.0042
109 | PLPPDPPCPPPP | 0.651 ± 0.072
110 | PLPPLPPPLPAP | 0.705 ± 0.052
111 | PLPPLPSTHPTL | 0.698 ± 0.035
112 | PLPPPLPNPPPS | 0.667 ± 0.074
113 | PLPPPLPPPGPH | 0.731 ± 0.053
114 | PLPPPPARLPSP | 0.703 ± 0.017
115 | PLPPPPHPLLLL | 0.681 ± 0.024

Row | Sequence | protein stability index
116 | PLPPPPRLPPRH | 0.677 ± 0.04
117 | PLPPPPYPPTLL | 0.592 ± 0.016
118 | PLPPPSPSSLSP | 0.713 ± 0.074
119 | PLPPRSPPRRPS | 0.634 ± 0.079
120 | PLPPSAPPLPPS | 0.778 ± 0.091
121 | PLPSFPFPRPSS | 0.634 ± 0.037
122 | PLPSHSRSRHPR | 0.744 ± 0.075
123 | PLPSLLLLPPFP | 0.701 ± 0.058
124 | PLPSPPPPFLSL | 0.71 ± 0.048
125 | PLPSPPPSATSL | 0.602 ± 0.045
126 | PLPTPTPPPPAP | 0.734 ± 0.028
127 | PLPTSRKSFGLV | 0.665 ± 0.06
128 | PLPWIFHCRAPL | 0.719 ± 0.048
129 | PLQEHYRQIFPD | 0.71 ± 0.0044
130 | PLQFLPPLPCVS | 0.539 ± 0.039
131 | PLQFSLADEFST | 0.705 ± 0.02
132 | PLRFSSFSFPGW | 0.739 ± 0.13
133 | PLRRPPRLPAPP | 0.7 ± 0.11
134 | PLRTRESIGARG | 0.707 ± 0.038
135 | PLSASPLPPFSR | 0.734 ± 0.11
136 | PLSCDSPFVNPT | 0.737 ± 0.042
137 | PLSFPALFSPLS | 0.684 ± 0.034
138 | PLSHSPPAPSSP | 0.658 ± 0.026

Row | Sequence | protein stability index
139 | PLSLICLLKSYL | 0.708 ± 0.025
140 | PLSLPLSLLCPP | 0.698 ± 0.051
141 | PLSLPPPSPRPP | 0.657 ± 0.013
142 | PLSLSVPPAFFI | 0.538 ± 0.14
143 | PLSPLALLPLRF | 0.694 ± 0.065
144 | PLSPLSLSPVAP | 0.62 ± 0.026
145 | PLSPPPPSHIPP | 0.653 ± 0.023
146 | PLTNPPCLTKYP | 0.793 ± 0.033
147 | PLTPPPAVHTYL | 0.72 ± 0.037
148 | PLTPVSPSPNPV | 0.648 ± 0.042
149 | PLTSNTSPPPMT | 0.618 ± 0.072
150 | PLVQSSCCRNYY | 0.7 ± 0.04
151 | PLVVPPSPRPPP | 0.735 ± 0.063
152 | PLWAVRPLLPPE | 0.677 ± 0.016
153 | PMADACPAPPPQ | 0.643 ± 0.041
154 | PMPGATDCQRGC | 0.615 ± 0.053
155 | PNFPEPSLTDAL | 0.716 ± 0.04
156 | PNGSRPAHGVKN | 0.646 ± 0.032
157 | PNLPRHPFPPSS | 0.74 ± 0.011
158 | PNLTYNTLRVVL | 0.638 ± 0.04
159 | PNNANHIKHRQY | 0.6722 ± 0.0012
160 | PNPEKPPGAPGQ | 0.63 ± 0.087
